Laboratory results: patent publication US8629241B2, “Alpha helical mimics, their uses and methods for their production” (The University of Queensland, priority 2004, dated 2014)
Where two headings read alike, the source gives them in different places. Values belong to the molecule of their own block, whether it stands above or below them. Where a SMILES comes first, the peptide text is derived from it. Bridges are numbered along the chain shown (N, C = ends). Where no end group is shown, it is not given here. [ ]: non-standard residue; d: D form. NPhGly = O=C(O)CNc1ccccc1

Legend:
[1] = format: physicochemical; conditions: for θ222/θ208 / [θ]192 / [θ]208 / [θ]222: Table 8; for [θ]192 / [θ]208 / [θ]222: one or more cyclic pentapeptide modules versus linear peptides; for % helicity: fH × 100, [θ∞H]222 = −44000, k = 2.6; for [θ]207: molar elipticity at 207 nm; for helicity by CD compared to native agonist and antagonist sequences: versus F/Nphe-[…], FIG. 12
Description: Circular Dichroism (CD) was performed on peptides having SEQ ID NOs: 8 to 14 and 18 to 31, using methods described above. The molar elipticities at 222 nm, 208 nm and 190 nm, ratios of elipticities at 222 nm/208 nm and relative helicity are shown in Tables 6 and 7.
Assuming that mean alpha helix content (fH) is linearly related to elipticity at 222 nm, or in our case 215 nm ([θ]obs215), then the equation for calculating helix content is: fH=([θ]obs215−[θ]C)/([θ]∞215−[θ]C) (1) Luo and Baldwin^22 determined that the random coil ([θ]C) and infinite alpha helix ([θ]∞222) molar elipticities are temperature dependent based on the equations: [θ]C=2220−53T (2a) [θ]∞215=(−44000+250T)(1−k/Np) (2b) where T is temperature in degrees Celsius, Np is the number of peptide units, and k is a finite length correction.
CD was performed on peptides having one [SEQ ID NO: 8] or more than one modular macrocycle [SEQ ID NOs: 46 and 47], as compared with corresponding linear peptides, Ac[KARAD]n—NH2 where n=1 [SEQ ID NO: 14], n=2 [SEQ ID NO: 54] and n=3 [SEQ ID NO: 55]. The molar elipticities at 222 nm, 208 nm and 190 nm, ratios of elipticities at 222 nm/208 nm and percentage helicity are shown in Table 8.
CD experiments were performed on a Jasco Model J-710 spectropolarimeter which was routinely calibrated with (1S)-(+)-10-camphorsulfonic acid. Temperature control was achieved using a Neslab RTE-111 circulating water bath. Spectra were recorded in a 0.1 cm Jasco cell between 310-185 nm at 50 nm/min with a band width of 1.0 nm, response time of 2 sec, resolution step width of 0.1 nm and sensitivity of 20, 50 or 100 mdeg. Each spectrum represents the average of 5 scans with smoothing to reduce noise. Peptide samples for CD spectroscopy were dissolved in distilled water (˜1 mg/mL). Each stock solution was diluted to a final concentration of 50 μM in 10 mM sodium phosphate buffer (pH7.4), with or without additives (2,2,2-trifluoroethanol (TFE) or guanidine.HCl). Guanidine.HCl denaturation experiments were performed according to Creighton^105.
1D ^1H NMR spectra were then recorded with presaturation and a relaxation delay (d1) of 30 seconds to allow for full relaxation of peptide and DSS^1H signals to facilitate accurate integration of proton signals with S/N>250:1. This method provides reproducible concentrations within ±2%.
CD data in ellipticity was converted to mean peptide ellipticity using the equation: [θ]=θ/(10×C×Np×1) where θ is the ellipticity in millidegrees, C is the peptide molar concentration (M), 1 is the cell path length (cm), and Np is the number of peptide units (ie. pentapeptides […], 10 & 11 Np=5, 12 Np=4.)
Relative helicities were employed to allow scaling of compounds by dividing the [θ]obs215(8)/[θ]obs215(x) for pentapeptides, and [θ]obs215(24)/[θ]obs215(x) for hexapeptides.

trypsin = experiment: Proteolytic stability of the helix, trypsin digestion (Example 10); format: in vitro ADME; conditions: pH 8.2, room temperature, 1 to 155 minutes
Description: A standard solution of Ac—KARAD-NH2 and Ac—(cyclo-1,5)-KARAD-NH2 (1 mg/mL) was prepared in 100 mM ammonium carbonate buffer at pH˜8.2. To 100 μL of each solution was added 1 mg/mL of trypsin (1 μL). The digest was conducted at room temperature with 5 μL aliquots taken at 1, 4, 8, 28, 48, 55, 110, 155 minutes. Aliquots were diluted with 5 μL of 3% TFA to stop the reaction. and analyzed by LC-MS using 2.1×150 mm Phenomenex 300 Å C18 5 μm column, with a 3% per minute linear gradient of 0-60% acetonitrile over 20 minutes. The amount of starting material left in each sample was quantified by determination of total ion counts for the molecular ion.
Compound of SEQ ID NO 8 and its acyclic version SEQ ID NO: 14 were incubated with trypsin (pH 8.2), aliquots removed at intervals between 1 and 155 minutes, and analyzed by LCMS. […] Similarly the cyclic compound 8 was not degraded by human serum (1 h, 37° C.). […] This is consistent with other observations that only an extended or linear peptide conformation is recognized, not only by trypsin, but by all proteolytic enzymes^125 Presumably the cycle is too tightly locked into an alpha helical turn to permit significant unwinding to the extended format needed for recognition by trypsin.

[2] = [θ]215 relative to SEQ ID NO: 8, 10 mM phosphate buffer, pH 7.4, 25° C
[3] = molar elipticity at 190 nm, 10 mM phosphate buffer, pH 7.4, 25° C
[4] = 10 mM phosphate buffer, pH 7.4, 25° C
[5] = molar elipticity at 215 nm, 10 mM phosphate buffer, pH 7.4, 25° C
[6] = ratio of elipticities, 10 mM phosphate buffer, pH 7.4, 25° C
[7] = cyclic hexapeptides 23-31, 10 mM phosphate buffer pH 7.4 at 25° C
[8] = θ215 relative to SEQ ID NO: 24, 10 mM phosphate buffer pH 7.4 at 25° C

θ222/θ208 [1]: 0.12
[θ]192 [1]: −14779 degcm^2dmol^−1residue^−1
[θ]208 [1]: −5758 degcm^2dmol^−1residue^−1
[θ]222 [1]: −732 degcm^2dmol^−1residue^−1
Relative helicity [1, 2]: 0.04
% helicity [1]: 0.8%
[θ]190 [1, 3]: −7372 deg.cm^2.dmol^−1.residue^−1
[θ]207 [1, 4]: −5555 deg.cm^2.dmol^−1.residue^−1
[θ]215 [1, 5]: −524 deg.cm^2.dmol^−1.residue^−1
θ215/θ207 [1, 6]: 0.09
Molecule: CC(=O)N[C@@H](CCCCN)C(=O)N[C@@H](C)C(=O)N[C@@H](CCCNC(=N)N)C(=O)N[C@@H](C)C(=O)N[C@@H](CC(=O)O)C(N)=O [SEQ ID NO: 14, Ac-[KARAD]-NH2] (Ac-KARAD-NH2)
stability to trypsin (starting material left, LCMS) (trypsin): completely hydrolyzed within a few minutes

Molecule: Ac-(cyclo-2,6)-R[KAQAD]-NH2 (Ac-RKAQAD-NH2; lactam 2-6; SMILES CC(=O)N[C@@H](CCCNC(=N)N)C(=O)N[C@H]1CCCCNC(=O)C[C@@H](C(N)=O)NC(=O)[C@H](C)NC(=O)[C@H](CCC(N)=O)NC(=O)[C@H](C)NC1=O) [SEQ ID NO: 26]
Molar ellipticity at 207 nm [1, 7]: −12279 deg.cm^2.dmol^−1.residue^−1
[θ]190 [1, 7]: 36865 deg.cm^2.dmol^−1.residue^−1
[θ]215 [1, 7]: −11394 deg.cm^2.dmol^−1.residue^−1
θ215/θ207 [1, 7]: 0.93
percentage helicities ([1]; equation 2b with k˜4, assuming 8 has 100% helicity): 70%
Relative helicity [1, 8]: 0.84

Molecule: Ac-(cyclo-2,6)-R[KGGGD]-NH2 (Ac-RKGGGD-NH2; lactam 2-6; SMILES CC(=O)N[C@@H](CCCNC(=N)N)C(=O)N[C@H]1CCCCNC(=O)C[C@@H](C(N)=O)NC(=O)CNC(=O)CNC(=O)CNC1=O) [SEQ ID NO: 31]
Molar ellipticity at 207 nm [1, 7]: −4868 deg.cm^2.dmol^−1.residue^−1
[θ]190 [1, 7]: −1593 deg.cm^2.dmol^−1.residue^−1
[θ]215 [1, 7]: −2131 deg.cm^2.dmol^−1.residue^−1
θ215/θ207 [1, 7]: 0.44
Relative helicity [1, 8]: 0.14

Molecule: Ac-(cyclo-2,6)-R[KGSAD]-NH2 (Ac-RKGSAD-NH2; lactam 2-6; SMILES CC(=O)N[C@@H](CCCNC(=N)N)C(=O)N[C@H]1CCCCNC(=O)C[C@@H](C(N)=O)NC(=O)[C@H](C)NC(=O)[C@H](CO)NC(=O)CNC1=O) [SEQ ID NO: 29]
Molar ellipticity at 207 nm [1, 7]: −6975 deg.cm^2.dmol^−1.residue^−1
[θ]190 [1, 7]: 12831 deg.cm^2.dmol^−1.residue^−1
[θ]215 [1, 7]: −4810 deg.cm^2.dmol^−1.residue^−1
θ215/θ207 [1, 7]: 0.69
Relative helicity [1, 8]: 0.32

Molecule: Ac-(cyclo-2,6)-R[KSSSD]-NH2 (Ac-RKSSSD-NH2; lactam 2-6; SMILES CC(=O)N[C@@H](CCCNC(=N)N)C(=O)N[C@H]1CCCCNC(=O)C[C@@H](C(N)=O)NC(=O)[C@H](CO)NC(=O)[C@H](CO)NC(=O)[C@H](CO)NC1=O) [SEQ ID NO: 30]
Molar ellipticity at 207 nm [1, 7]: −8017 deg.cm^2.dmol^−1.residue^−1
[θ]190 [1, 7]: 6827 deg.cm^2.dmol^−1.residue^−1
[θ]215 [1, 7]: −4432 deg.cm^2.dmol^−1.residue^−1
θ215/θ207 [1, 7]: 0.55
Relative helicity [1, 8]: 0.30

Molecule: Cyclo(6-10, 11-15)-FGGFT[KARKD][KRKLD]-NH2 (FGGFTKARKDKRKLD; bicyclic lactam bridges, C-terminal amide) [SEQ ID NO: 76]
helicity by CD compared to native agonist and antagonist sequences [1]: increase helicity

Molecule: Cyclo(6-10, 11-15)-NpheGGFT[KARKD][KRKLD]-NH2 ([NPhGly]GGFTKARKDKRKLD-NH2; lactam 6-10, 11-15; N-terminus assumed; SMILES CC(C)C[C@@H]1NC(=O)[C@H](CCCCN)NC(=O)[C@H](CCCNC(=N)N)NC(=O)[C@@H](NC(=O)[C@@H]2CC(=O)NCCCC[C@H](NC(=O)[C@@H](NC(=O)[C@H](Cc3ccccc3)NC(=O)CNC(=O)CNC(=O)CNc3ccccc3)[C@@H](C)O)C(=O)N[C@@H](C)C(=O)N[C@@H](CCCNC(=N)N)C(=O)N[C@@H](CCCCN)C(=O)N2)CCCCNC(=O)C[C@@H](C(N)=O)NC1=O) [SEQ ID NO: 77]
helicity by CD compared to native agonist and antagonist sequences [1]: increase helicity

Molecule: H-(cyclo-1,5)-[KARAD]-NH2 (H-KARAD-NH2; lactam 1-5; SMILES C[C@@H]1NC(=O)[C@H](CCCNC(=N)N)NC(=O)[C@H](C)NC(=O)[C@@H](N)CCCCNC(=O)C[C@@H](C(N)=O)NC1=O) [SEQ ID NO: 21]
Relative helicity [1, 2]: 0.06
Relative helicity ([1]; [θ]215 relative to SEQ ID NO: 8, in 0.001 M NaOH pH 10): 0.2
[θ]190 [1, 3]: 1355 deg.cm^2.dmol^−1.residue^−1
[θ]190 ([1]; molar elipticity at 190 nm, in 0.001 M NaOH pH 10): 8452 deg.cm^2.dmol^−1.residue^−1
[θ]207 [1, 4]: −2228 deg.cm^2.dmol^−1.residue^−1
[θ]207 ([1]; in 0.001 M NaOH pH 10): −3327 deg.cm^2.dmol^−1.residue^−1
[θ]215 [1, 5]: −812 deg.cm^2.dmol^−1.residue^−1
[θ]215 ([1]; molar elipticity at 215 nm, in 0.001 M NaOH pH 10): −2590 deg.cm^2.dmol^−1.residue^−1
θ215/θ207 [1, 6]: 0.36
θ215/θ207 ([1]; ratio of elipticities, in 0.001 M NaOH pH 10): 0.78

Molecule: H-(cyclo-1,5)-[KARAD]-OH (H-KARAD-OH; lactam 1-5; SMILES C[C@@H]1NC(=O)[C@H](CCCNC(=N)N)NC(=O)[C@H](C)NC(=O)[C@@H](N)CCCCNC(=O)C[C@@H](C(=O)O)NC1=O) [SEQ ID NO: 22]
Relative helicity [1, 2]: 0.08
[θ]190 [1, 3]: −4966 deg.cm^2.dmol^−1.residue^−1
[θ]207 [1, 4]: −5737 deg.cm^2.dmol^−1.residue^−1
[θ]215 [1, 5]: −1033 deg.cm^2.dmol^−1.residue^−1
θ215/θ207 [1, 6]: 0.18

Molecule: SEQ ID NO: 55: linear peptide Ac(KARAD)n-NH2 where n=3 (Ac-KARADKARADKARAD-NH2)
θ222/θ208 [1]: 0.39
[θ]192 [1]: −8024 degcm^2dmol^−1residue^−1
[θ]208 [1]: −9788 degcm^2dmol^−1residue^−1
[θ]222 [1]: −3852 degcm^2dmol^−1residue^−1
% helicity [1]: 7%

Molecule: cyclo(1-5, 6-10, 11-15)-Ac-[KARADKARADKARAD]-NH2 (Ac-KARADKARADKARAD-NH2; lactam 1-5, 6-10, 11-15; SMILES CC(=O)N[C@H]1CCCCNC(=O)C[C@@H](C(=O)N[C@H]2CCCCNC(=O)C[C@@H](C(=O)N[C@H]3CCCCNC(=O)C[C@@H](C(N)=O)NC(=O)[C@H](C)NC(=O)[C@H](CCCNC(=N)N)NC(=O)[C@H](C)NC3=O)NC(=O)[C@H](C)NC(=O)[C@H](CCCNC(=N)N)NC(=O)[C@H](C)NC2=O)NC(=O)[C@H](C)NC(=O)[C@H](CCCNC(=N)N)NC(=O)[C@H](C)NC1=O) [SEQ ID NO: 47]
θ222/θ208 [1]: 1.34
[θ]192 [1]: 100811 degcm^2dmol^−1residue^−1
[θ]208 [1]: −23842 degcm^2dmol^−1residue^−1
[θ]222 [1]: −31987 degcm^2dmol^−1residue^−1
% helicity [1]: 88%
